17 molecules from patent publication US6348311B1, “ATM kinase modulation for screening and therapies” (St. Jude Childre's Research Hospital, priority 1999, dated 2002) can be followed below.

Where no end group is shown, it is not given here.

Assay type in all cases: biochemical
For one assay, the target named is T1, ATM kinase (Homo sapiens, UniProt Q13315).
T1 construct: The full-length cDNA encoding NH2-terminal, FLAG-tagged wild-type ATM; made in house; host or cells: 293T cells, transient transfection with pcDNA-FLAG-ATMwt, anti-FLAG M2 immunoprecipitate on beads
In words: In vitro kinase assay, ATM with GST-peptide / GST-fusion substrates.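 On all read-outs here: immunoprecipitated ATM incubated with [γ-32P]ATP at 30 °C for 20 min, substrates resolved by SDS-PAGE and radiolabel incorporation quantified by PhosphorImager.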 The note with it: for Relative Phosphorylation (%) ATM: GST-peptide substrate, relative to the p53ser15 site; for phosphorylation of GST-peptide substrate by ATM (in words): GST-conjugated 14 amino acid peptides; for phosphorylation by ATM in vitro (in words): larger GST-fusion fragments or full-length proteins as substrates.

Another assay addresses T2, ATR (Homo sapiens, UniProt Q13535).
T2 construct: made in house; host or cells: 293T cells, transient transfection with pBJF-FRPwt, anti-FLAG M2 immunoprecipitate
In words: In vitro kinase assay, ATR with GST-peptide / GST-fusion substrates. As to conditions: for Relative Phosphorylation (%) ATR: GST-peptide substrate, relative to the p53ser15 site; for phosphorylation by ATR in vitro (in words): larger GST-fusion fragments or full-length proteins as substrates. The method, then:
(§1) FIGS. 1A, 1B, and 1C. Phosphorylation of GST-p53 mutant peptides (amino acids 9-21) by ATM, ATR, and DNA-PK in vitro. In vitro kinase assays with immunoprecipitated, transfected flag-tagged ATM (A) or ATR (B) or purified DNA-PK (C) were performed with GST-p53 peptides containing the amino acid substitutions indicated. The amount of 32P-labeled GST-peptides was quantitated with a PhosphorImager and was normalized for each of the kinases to the level of phosphorylation of wild-type GST-p53.
(§2) FIGS. 2A, 2B, and 2C. Phosphorylation of candidate targets of by ATM, ATR and DNA-PK in vitro. GST-peptides containing the putative target sequences were used as substrates for the kinase assay.
Transfection and Kinase Activity Assays. 293T cells were transiently transfected with 10 μg of either pcDNA-FLAG-ATMwt, pcDNA-FLAG-ATMkd, pBJF-FRPwt or pBJF-FRPkd (Cliby et al., EMBO J., 17:159, 1998) using calcium phosphate and harvested two days later. Cells were lysed through sonication in TGN buffer [50 mM Tris (pH 7.5), 50 mM glycerophosphate, 150 mM NaCl, 10% glycerol, 1% Tween 20, 1 mM NaF, 1 mM NaVO4, 1 mM PMSF, […] Pepstatin A, 5 μg/ml leupeptin, 10 μg/ml Aprotinin and 1 mM DTT] as described (Brunn et al., Science, 277:99-101,1997). After centrifugation at 13,000 ×g, 2 mg of extract were incubated with mouse IgG and protein A/G sepharose beads (Calbiochem). FLAG-tagged proteins were then immunoprecipitated with anti-FLAG M2 monoclonal antibody (Eastman Kodak Company) and protein A/G sepharose beads. Immunoprecipitates were washed twice with TGN buffer, once with 100 mM Tris (pH 7.5) plus 0.5 M LiCl, and twice with kinase buffer [10 mM Hepes (pH 7.5), 50 mM glycerophosphate, 50 mM NaCl, 10 mM MgCl2, 10 mM MnCl2, 5 μM ATP, and 1 mM DTT]. Kinase reactions were initiated by resuspending washed beads in 30 μl of kinase buffer containing 10 μCi [γ-^32P]ATP and 1 μg GSTp531-101 and incubated for 30 minutes at 30° C. Proteins were electrophoretically separated by SDS-polyacrylamide gel electrophoresis, transferred to nitrocellulose, and analyzed on a PhosphorImager. FLAG-tagged proteins and GSTp531-101 were subjected to immunoblotting with either anti-FLAG M2 antibody or monoclonal antibodies directed towards the NH2-terminus of p53 (Ab-2 and Ab-6, Calbiochem) as described (Siliciano et al., Genes Dev., 11:3471, 1997).
Phosphorylation of Ser^15 of p53 by ATM and ATR/FRP1 in vitro. […] Proteins from each reaction were separated by SDS polyacrylamide gel electrophoresis (7% gel), transferred to nitrocellulose, and analyzed either on a PhosphorImager or by immunoblotting. Amounts of FLAG-tagged ATM or ATR in each kinase reaction were measured by immunoblotting with anti-FLAG M2 (top panel) and amount of [γ^32P]phosphate incorporated into ATM or ATR during the reaction (lower panel). […] An upper immunoreactive band represents phosphorylated GSTp53 fusion protein. The same exposures were used for ATM, ATR/FRP1 and corresponding substrate proteins.
(§3) Plasmids and GST-fusion protein production. For GST fusion peptide expression vectors, complementary oligonucleotides encoding desired peptides (14 amino acids) were cloned into the BamHI/SmaI site of pGEX-2T (Pharmacia). The constructs were confirmed by restriction enzyme digests and DNA sequencing. To construct the larger GST-p95 (327-391) protein fragment, p95 DNA encoding amino acids 327-391 was amplified by PCR with Pfu polymerase using the following primers: 5′ sense,
In vitro kinase assays and immunoprecipitation. […] Cleared supernatants were immunoprecipitated with anti-Flag M2 antibody and protein A/G agarose, the beads were washed with TGN buffer followed by TGN buffer plus 0.5 M LiCl, and two washes with kinase buffer [20 mM HEPES (pH 7.5), 50 mM NaCl, 10 mM MgCl2, 1 mM dithiothreitol (DTT) and 10 mM MnCl2]. […] ATP and […] of GST-fusion substrate (GST-p53:1-101), in varying concentration of Mn^2+. […]

A further assay has as its target DNA-PK (Homo sapiens, UniProt P78527). In words: In vitro kinase assay, purified DNA-PK with GST-peptide / GST-fusion substrates. As to conditions: for Relative Phosphorylation (%) DNA-PK: GST-peptide substrate, relative to the p53ser15 site. The protocol:
as §1, §2, §3
In vitro kinase assays and immunoprecipitation. […] Cleared supernatants were immunoprecipitated with anti-Flag M2 antibody and protein A/G agarose, the beads were washed with TGN buffer followed by TGN buffer plus 0.5 M LiCl, and two washes with kinase buffer [20 mM HEPES (pH 7.5), 50 mM NaCl, 10 mM MgCl2, 1 mM dithiothreitol (DTT) and 10 mM MnCl2]. […] ATP and […] of GST-fusion substrate (GST-p53:1-101), in varying concentration of Mn^2+. The kinase reaction was conducted at 30° C. for 20 min and stopped by the addition of SDS-PAGE loading buffer. Proteins were separated on SDS-polyacrylamide gel electrophoresis (SDS-PAGE) and transferred to nitrocellulose. Radiolabeled proteins were visualized and quantitated on a Phosphorimager (Molecular Dynamics). Use of equivalent amounts of flag-tagged ATM or ATR in the different lanes was confirmed by immunoblotting with anti-flag antibody. In some reactions, either supercoiled DNA (pBluescript II KS, Stratagene) or linearized DNA (pBluescript II KS cut with EcoR1) was added ([…]). For endogenous ATM kinase reactions, endogenous ATM was immunoprecipitated from GM0536 lymphhoblasts with ATM monoclonal antibody (D16.11) in M buffer (PBS, 10% glycerol, 0.2% Tween 20, 0.3% NP-40, 1 mM NaF, 1 mM Na3VO4, 1 mM PMSF, 1x protease inhibitor mixture]. After washing with M buffer and kinase buffer, in vitro kinase reactions were carried out according to procedures described above. The DNA-PK in vitro kinase reaction was performed as previously described (Gottlieb and Jackson, 1993), using 20 ng each of DNA-PKcs or DNA-PK (20 ng DNA-PKcs premixed with 20 ng Ku 70/80).

T1 sequence (Q13315 whole entry): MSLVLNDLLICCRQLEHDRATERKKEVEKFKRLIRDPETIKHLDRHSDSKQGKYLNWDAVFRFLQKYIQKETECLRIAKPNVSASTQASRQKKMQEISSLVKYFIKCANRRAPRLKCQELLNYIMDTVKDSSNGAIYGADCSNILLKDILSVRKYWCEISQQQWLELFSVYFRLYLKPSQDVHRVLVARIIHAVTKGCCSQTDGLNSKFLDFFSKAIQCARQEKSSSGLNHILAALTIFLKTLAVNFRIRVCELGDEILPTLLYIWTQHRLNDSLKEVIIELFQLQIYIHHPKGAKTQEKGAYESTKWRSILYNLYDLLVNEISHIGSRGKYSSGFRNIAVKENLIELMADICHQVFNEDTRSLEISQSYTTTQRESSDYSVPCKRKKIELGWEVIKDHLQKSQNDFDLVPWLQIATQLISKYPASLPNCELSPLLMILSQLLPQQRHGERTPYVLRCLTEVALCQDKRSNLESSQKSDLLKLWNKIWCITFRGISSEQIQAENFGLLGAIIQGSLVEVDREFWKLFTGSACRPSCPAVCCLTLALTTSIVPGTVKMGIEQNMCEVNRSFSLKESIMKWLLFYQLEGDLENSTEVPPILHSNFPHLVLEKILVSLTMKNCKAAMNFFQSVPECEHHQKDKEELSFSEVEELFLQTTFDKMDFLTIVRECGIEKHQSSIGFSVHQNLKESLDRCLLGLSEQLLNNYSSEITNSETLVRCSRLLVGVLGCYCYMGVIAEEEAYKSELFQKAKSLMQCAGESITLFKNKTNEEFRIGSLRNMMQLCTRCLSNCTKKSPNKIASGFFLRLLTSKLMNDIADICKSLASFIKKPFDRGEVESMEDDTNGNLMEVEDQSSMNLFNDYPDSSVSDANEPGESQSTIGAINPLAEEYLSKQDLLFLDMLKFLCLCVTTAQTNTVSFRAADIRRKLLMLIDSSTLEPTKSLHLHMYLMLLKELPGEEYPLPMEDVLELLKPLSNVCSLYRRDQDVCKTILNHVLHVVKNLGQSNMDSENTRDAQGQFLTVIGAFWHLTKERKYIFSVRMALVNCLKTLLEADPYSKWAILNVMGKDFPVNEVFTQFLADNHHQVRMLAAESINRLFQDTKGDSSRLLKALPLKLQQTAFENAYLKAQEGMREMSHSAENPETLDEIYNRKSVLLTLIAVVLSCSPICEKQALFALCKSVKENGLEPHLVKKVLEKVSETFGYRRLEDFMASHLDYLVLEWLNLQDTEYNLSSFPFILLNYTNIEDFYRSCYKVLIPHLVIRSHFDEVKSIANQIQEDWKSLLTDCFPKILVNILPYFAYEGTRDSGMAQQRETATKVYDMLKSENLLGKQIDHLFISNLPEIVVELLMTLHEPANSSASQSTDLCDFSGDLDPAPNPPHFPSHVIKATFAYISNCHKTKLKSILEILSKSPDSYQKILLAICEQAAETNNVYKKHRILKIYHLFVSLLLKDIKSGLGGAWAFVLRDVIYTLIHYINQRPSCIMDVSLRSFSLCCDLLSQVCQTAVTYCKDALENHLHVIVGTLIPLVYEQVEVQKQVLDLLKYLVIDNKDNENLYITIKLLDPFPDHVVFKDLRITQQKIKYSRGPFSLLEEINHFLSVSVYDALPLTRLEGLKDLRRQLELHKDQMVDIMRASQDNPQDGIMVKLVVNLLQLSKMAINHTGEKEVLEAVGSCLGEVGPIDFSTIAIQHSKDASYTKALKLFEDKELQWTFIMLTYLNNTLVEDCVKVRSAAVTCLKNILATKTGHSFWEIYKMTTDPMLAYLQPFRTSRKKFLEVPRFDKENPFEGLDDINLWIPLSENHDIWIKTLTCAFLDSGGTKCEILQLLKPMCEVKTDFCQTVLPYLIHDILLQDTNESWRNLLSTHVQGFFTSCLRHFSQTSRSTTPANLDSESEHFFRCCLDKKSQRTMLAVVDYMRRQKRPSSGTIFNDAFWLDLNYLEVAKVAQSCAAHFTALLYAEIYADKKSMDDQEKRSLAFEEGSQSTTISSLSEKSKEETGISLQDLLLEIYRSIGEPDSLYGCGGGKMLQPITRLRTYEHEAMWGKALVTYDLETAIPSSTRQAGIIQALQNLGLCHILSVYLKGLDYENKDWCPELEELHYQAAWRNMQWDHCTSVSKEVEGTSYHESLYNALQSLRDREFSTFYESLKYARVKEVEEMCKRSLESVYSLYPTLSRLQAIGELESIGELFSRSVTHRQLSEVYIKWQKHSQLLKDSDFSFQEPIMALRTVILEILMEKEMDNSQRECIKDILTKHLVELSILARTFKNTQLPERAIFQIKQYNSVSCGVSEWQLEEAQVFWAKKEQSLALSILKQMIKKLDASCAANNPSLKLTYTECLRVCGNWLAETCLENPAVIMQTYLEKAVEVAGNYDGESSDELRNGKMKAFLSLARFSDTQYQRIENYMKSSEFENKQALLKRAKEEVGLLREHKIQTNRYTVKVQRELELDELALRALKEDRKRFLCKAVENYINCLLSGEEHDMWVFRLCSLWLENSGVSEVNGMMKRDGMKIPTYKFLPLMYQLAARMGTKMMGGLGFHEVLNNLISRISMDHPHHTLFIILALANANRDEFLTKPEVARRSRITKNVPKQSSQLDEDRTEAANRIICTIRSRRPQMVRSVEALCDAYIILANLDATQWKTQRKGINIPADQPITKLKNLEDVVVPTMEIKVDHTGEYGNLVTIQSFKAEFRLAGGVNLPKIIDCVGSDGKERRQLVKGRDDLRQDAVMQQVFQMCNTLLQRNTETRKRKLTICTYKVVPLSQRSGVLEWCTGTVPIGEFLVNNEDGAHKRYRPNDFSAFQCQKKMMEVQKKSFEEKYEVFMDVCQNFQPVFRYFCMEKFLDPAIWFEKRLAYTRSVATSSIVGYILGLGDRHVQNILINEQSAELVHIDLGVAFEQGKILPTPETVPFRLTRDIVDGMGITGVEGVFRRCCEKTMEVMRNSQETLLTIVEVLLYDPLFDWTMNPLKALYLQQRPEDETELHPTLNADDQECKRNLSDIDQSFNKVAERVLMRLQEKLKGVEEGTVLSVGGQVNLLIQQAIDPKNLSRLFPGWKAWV

With `[Mn+2]` [Mn^2+], the “effect of addition on activity of endogenous ATM” value at ATM kinase (endogenous ATM immunoprecipitated under mild conditions) is given as “dependent”. In addition, the “effect of addition on ATM kinase activity” value on ATM kinase (transfected flag-tagged ATM, GST-p53 (1-101) substrate) is on record as “dependent”. Also, the “effect of addition on ATR kinase activity” value at ATR (transfected flag-tagged ATR, GST-p53 (1-101) substrate) is “dependent”. Moreover, on DNA-PK (purified DNA-PK, GST-p53 (1-101) substrate), the “effect of addition on DNA-PK activity” value is on record as “not altered”.
For “PI-3K: GST-peptide DLLMYLSQLVQALK (SEQ ID NO:26), S397 (also: GST fusion)”, the “Relative Phosphorylation (%) ATM” value in the assay with ATM kinase was <1%. The “Relative Phosphorylation (%) ATR” value with ATR is on record as 150%. Moreover, in the assay with DNA-PK, the “Relative Phosphorylation (%) DNA-PK” value is on record as <1%.
Consider “DNA 5B: GST-peptide QPEPPVSQSEISEP (SEQ ID NO:38), S72 (also: GST fusion)”, for which the “Relative Phosphorylation (%) ATM” value in the assay with ATM kinase worked out at 3%. For the same molecule, the “Relative Phosphorylation (%) ATR” value with ATR is 145%. Further, the “Relative Phosphorylation (%) DNA-PK” value with DNA-PK is 15%.
Turning to “p95: GST-peptide TPGPSLSQGVSVDE (SEQ ID NO:10), S343 (not fully specified (N-terminus); also: GST fusion; listed as Homo sapiens)”, the “Relative Phosphorylation (%) ATM” value with ATM kinase was determined as 19%. The “Relative Phosphorylation (%) ATR” value with ATR is reported as 31%. The “Relative Phosphorylation (%) DNA-PK” value in the assay with DNA-PK amounted to 45%.
The corresponding values for “RPA34kD (SQ2): GST-peptide IVPCTISQLLSATL (SEQ ID NO:41), S52 (not fully specified (N-terminus); also: GST fusion; listed as Homo sapiens)” are <1%, 31% and <1%.
As to “MRE11 (SQ4): GST-peptide SASRGGSQRGRAFK (SEQ ID NO:14), S590 (also: GST fusion)”, in the assay with ATM kinase, the “Relative Phosphorylation (%) ATM” value is on record as <1%.
As to “p120E4F: GST-peptide APEPPVSQELPCSR (SEQ ID NO:31), S355 (not fully specified (N-terminus); also: GST fusion; listed as Homo sapiens)”, the “Relative Phosphorylation (%) ATM” value with ATM kinase is listed as 11%. Further, in the assay with ATR, the “Relative Phosphorylation (%) ATR” value is given as 30%. Besides, the “Relative Phosphorylation (%) DNA-PK” value with DNA-PK is on record as 2%.
Regarding “RAD17 (SQ1): GST-peptide TWSLPLSQDSASEL (SEQ ID NO:18), S646 (not fully specified (N-terminus); also: GST fusion)”, the “Relative Phosphorylation (%) ATM” value in the assay with ATM kinase is 81%. Moreover, the “Relative Phosphorylation (%) ATR” value with ATR is 733%. Further, the “Relative Phosphorylation (%) DNA-PK” value with DNA-PK is 97%.
For the molecule “DNA LIG-IV: GST-peptide DLKLGVSQQTIFSV (SEQ ID NO:39), S132 (also: GST fusion)”, in the assay with ATM kinase, the “phosphorylation of GST-peptide substrate by ATM (in words)” value was “not by ATM” and the “Relative Phosphorylation (%) ATM” value was found to be 5%. In addition, in the assay with ATR, the “Relative Phosphorylation (%) ATR” value worked out at 36%. Further, the “phosphorylation of GST-peptide substrate by DNA-PK (in words)” value in the assay with DNA-PK (GST-conjugated 14 amino acid peptides) is “phosphorylated by DNA-PKcs”. Further, the “Relative Phosphorylation (%) DNA-PK” value with DNA-PK is given as 48%.
Take “4EBP1 (Phas I): GST-peptide EPPMEASQSHLRNS (SEQ ID NO:9), S94 (also: GST fusion)”: in the assay with ATM kinase, the “phosphorylation of GST-peptide substrate by ATM (in words)” value is “excellent in vitro substrate” and the “Relative Phosphorylation (%) ATM” value amounted to 78%. Moreover, the “Relative Phosphorylation (%) ATR” value with ATR worked out at 66%. Moreover, the “Relative Phosphorylation (%) DNA-PK” value in the assay with DNA-PK is given as 10%.
As to “MRE11 (SQ5): GST-peptide SSSKIMSQSQVSKG (SEQ ID NO:15), S648 (also: GST fusion)”, in the assay with ATM kinase, the “Relative Phosphorylation (%) ATM” value is <1%.
Consider “wt p53: recombinant glutathione S-transferase-conjugated p53 protein containing the first 101 amino acids of p53”, for which the “phosphorylation by ATM in vitro (in words)” value (“phosphorylation by ATM” for short) with ATM kinase is on record as “phosphorylated”. The “ATR/FRP-1 activity towards substrate, less than ATM” value in the assay with ATR (identical experimental conditions) is recorded as “at least 20 fold”.
On to “full-length WRN protein: purified recombinant full-length WRN protein”, for which, in the assay with ATM kinase, the “phosphorylation by ATM” value is given as “not phosphorylated”. Besides, in the assay with ATR, the “phosphorylation by ATR in vitro (in words)” value was “not phosphorylated”.
Consider “GST: glutathione S-transferase alone, control substrate [reference compound]”, for which the “phosphorylation by ATM” value with ATM kinase is listed as “did not phosphorylate”.

B1: GST-WRN (1099-1198): GST-linked WRN fragment, amino acids 1099-1198 (protein)
chain: STEKKSNLEKLYSYKPCDKISSGSNISKKSIMVQSPEKAYSSSQPVISAQEQETQIVLYGKLVEARQKHANKMDVPPAILATNKILVDMAKMRPTTVENV
modifications: left off: a dimerising Fc or GST
Regarding B1, in the assay with ATM kinase, the “phosphorylation by ATM” value is on record as “not phosphorylated”. In the assay with ATR, the “phosphorylation by ATR in vitro (in words)” value was “not phosphorylated”.

B2: PhasI/4E-BP1: full-length 4E-BP1 protein, translation regulator in insulin signaling (protein)
chain: SAGSSCSQTPSRAIPTRRVALGDGVQLPPGDYSTTPGGTLFSTTPGGTRIIYDRKFLMECRNSPVAKTPPKDLPTIPGVTSPTSDEPPMQASQSHLHSSPEDKRAGGEESQFEMDI
B2: the “phosphorylation by ATM” value was “good substrate” with ATM kinase and “can phosphorylate” with ATM kinase (listed as full-length 4E-BP 1).

B3: GST-p95 (327-391): larger GST-p95 protein fragment, p95 amino acids 327-391, containing serine 343 (protein)
chain: GHPSTGLKTTTPGPSLSQGVSVDEKLMPSAPVNTTTYVADTESEQADTWDLSERPKEIKVSKMEQ
modifications: also: GST fusion
B3: in the assay with ATM kinase, the “phosphorylation by ATM” value is recorded as “excellent in vitro substrate”.
